This is an account of results in patent US20250090677A1 (MULTITUDE THERAPEUTICS, published 2025).

The target in test [1] is T1, Human CDH6-ECD-His (human, UniProt P55285 54-615).
T1 construct: extracellular domain; Bought protein; also called human CDH6-ECD-His recombinant protein; Human CDH6-EC6D-His; not shown: His tag
T1 sequence (looked up): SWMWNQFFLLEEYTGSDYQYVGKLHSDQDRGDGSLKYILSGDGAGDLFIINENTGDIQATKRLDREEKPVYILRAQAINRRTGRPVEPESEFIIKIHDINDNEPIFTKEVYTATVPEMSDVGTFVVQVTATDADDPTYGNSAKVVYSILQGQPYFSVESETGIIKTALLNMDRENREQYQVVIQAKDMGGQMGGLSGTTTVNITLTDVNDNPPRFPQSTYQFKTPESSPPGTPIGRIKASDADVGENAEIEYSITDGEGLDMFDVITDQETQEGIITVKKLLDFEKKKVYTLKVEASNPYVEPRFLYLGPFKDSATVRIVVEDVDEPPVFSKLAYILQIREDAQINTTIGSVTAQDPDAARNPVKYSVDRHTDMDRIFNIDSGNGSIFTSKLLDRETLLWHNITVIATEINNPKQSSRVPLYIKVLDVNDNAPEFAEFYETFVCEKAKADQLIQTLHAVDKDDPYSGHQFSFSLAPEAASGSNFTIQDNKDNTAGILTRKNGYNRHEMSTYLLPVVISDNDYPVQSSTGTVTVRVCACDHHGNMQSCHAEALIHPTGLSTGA
Put plainly: ELISA, antigen coated at 1 ug/mL. As to the method:
(§1) CDH9 and […] are the most closely related family members to CDH6. Binding of CL069707-H1L1 on human CDH6, CDH9 and CDH10 ECD domains were analyzed by ELISA Binding Assay. Human […], CDH9-ECD-His and CDH10-ECD-His antigens were obtained from Acro Biosystems, Inc. 100 μL of 1 μg/mL of the antigens diluted in PBS were added to 96 well plates and incubated in 4° C. overnight. The plates were washed 3 times with 300 μL of washing buffer. Then 100 μL/well of 1% BSA blocking reagent were added to the plates, and incubated at 37° C. for 1 h then the blocking reagent were discarded. A 3-fold serial dilution of CL069707-H1L1 was added to the plates and then incubated at 37° C. for 1 h. Then the plates were washed 3 times with 300 μL of washing buffer. 100 μL/well of HRP-conjugated anti-Human antibody diluted in 1% BSA were added to the plates and then incubated at 37° C. for 1 h. The plates were washed 3 times with 300 μL of washing buffer. 100 μL/well of TMB substrate were added to the plates and incubated for about 10 min in room temperature. Then the reaction was stopped with 100 μL/well of stopping solution. OD450 was read with a plate reader and the data were processed.
For orientation: In an ELISA, binding on a coated surface is turned into a signal by an enzyme label.

Test [2] deals with T1, Human CDH6-ECD-His. The experiment in a line: BLI (Octet), antibody on AHC sensor, antigen 3.13-100 nM, 1:1 model. As to the method: (§2) Binding affinities of CL069707-H1L1 and Ch069707 were measured using the Octet® system based on Bio-Layer Interferometry (BLI) technique. Antibodies were loaded to AHC (Anti-hIgG Fc Capture) at 100 nM concentration. […] From the six different binding curves obtained from each antigen concentration, binding constants (KD) were calculated based on the 1:1 binding model. CL069707-H1L1 and Ch069707 binds to human CDH6-ECD-His antigen with similar affinity. CL069707-H1L1 binds to human CDH6-ECD-His and cyno monkey CDH6-ECD-His antigens with similar affinity.
For orientation: BLI is a label-free optical method that tracks binding on a fibre tip over time.

Test [3] deals with T2, cyno monkey CDH6-ECD-His (cyno monkey, UniProt A0A2K5TW62 54-615).
T2 construct: extracellular domain; Bought protein; also called Cyno CDH6-ECD-His; not shown: His tag
T2 sequence: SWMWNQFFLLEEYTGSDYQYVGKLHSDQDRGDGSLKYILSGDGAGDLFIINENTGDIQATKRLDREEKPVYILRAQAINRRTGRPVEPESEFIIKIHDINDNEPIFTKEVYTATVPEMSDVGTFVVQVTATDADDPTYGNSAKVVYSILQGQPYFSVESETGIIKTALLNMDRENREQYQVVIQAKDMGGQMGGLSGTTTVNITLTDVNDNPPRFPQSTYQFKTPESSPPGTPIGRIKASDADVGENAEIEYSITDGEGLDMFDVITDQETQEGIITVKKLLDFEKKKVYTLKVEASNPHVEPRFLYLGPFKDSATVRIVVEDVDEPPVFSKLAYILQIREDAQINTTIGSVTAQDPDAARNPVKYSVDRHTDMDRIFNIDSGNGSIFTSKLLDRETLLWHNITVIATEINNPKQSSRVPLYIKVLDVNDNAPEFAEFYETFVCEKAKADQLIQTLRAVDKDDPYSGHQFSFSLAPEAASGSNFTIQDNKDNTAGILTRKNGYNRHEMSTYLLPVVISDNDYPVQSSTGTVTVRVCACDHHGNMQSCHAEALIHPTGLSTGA
Described as above. The protocol:
as §2

The target of test [4] is T1, Human CDH6-ECD-His. The experiment in a line: ELISA, antigen coated at 1 ug/mL, 3-fold antibody dilutions, HRP anti-human antibody, OD450. As to the method:
as §1
(§3) Binding of CL069707-H1L1 on human, cyno monkey, mouse or rat CDH6 antigen were analyzed by ELISA. Human, cyno monkey, mouse and rat CDH6-ECD-His antigens were obtained from Acro Biosystems, Inc. ELISA were done with the same methods as in example 3.1. CL069707-H1L1 binds to human, cyno monkey, mouse and rat CDH6-ECD-His antigens with similar EC50.

Test [5] has as its target T2, cyno monkey CDH6-ECD-His. The test is described as above. As to the method: as §1, §3

B1: CL069707-H1L1 (antibody, human IgG1, kappa, V domains shown)
VH: EVQLVESGGGLVQPGGSLRLSCAASGFTFTTYAMNWVRQAPGKGLEWVARIRIKNNNYATYYADSVTDRFTISRDDSKNSLYLQMNSLKTEDTAVYYCVRPDYGNYGLAYWGQGTLVTVSS
VL: DIQLTQSPSSLSASVGDRVTITCSASSSISSHYLHWYQQKPGKSPKLLIYRSFYLASGVPSRFSGSGSGTDFTLTISSLQPEDFATYYCQQDIVPLTFGQGTKLEIKR
notes: Humanized IgG1/kappa, produced in 293 cells; also called humanized CL069707-H1L1
As for B1, the EC50 (as a rule, the concentration that produces a half-maximal response) with Human CDH6-ECD-His [1] was found to be 0.1 nM. The Kd – broadly, a measure of binding affinity in units of concentration – with Human CDH6-ECD-His [2] was 3.08 nM; in the test with cyno monkey CDH6-ECD-His [3], 2.69 nM. The “EC50 (read off the curve)” value with Human CDH6-ECD-His [4] and with cyno monkey CDH6-ECD-His [5] was approximately 0.1 nM each time.
